Test results as given in patent US20200017563A1 (University of California, published 2020).

Columns and labels:
[1] = molecular target: Human Tau K18 2×VY (I278V/N279Y) (human) (UniProt P10636); experiment: cell-based or functional assay
[2] = molecular target: Human Tau K18 2×IN (V308I/Y309N) (human) (UniProt P10636); experiment: cell-based or functional assay
[3] = molecular target: Human Tau40 (residues 1-441) with a C-terminal His-tag (human, UniProt P10636 1-757); experiment: cell-based or functional assay
Human Tau40 (residues 1-441) with a C-terminal His-tag, sequence (P10636 other isoform, or with tags, fused parts or gaps): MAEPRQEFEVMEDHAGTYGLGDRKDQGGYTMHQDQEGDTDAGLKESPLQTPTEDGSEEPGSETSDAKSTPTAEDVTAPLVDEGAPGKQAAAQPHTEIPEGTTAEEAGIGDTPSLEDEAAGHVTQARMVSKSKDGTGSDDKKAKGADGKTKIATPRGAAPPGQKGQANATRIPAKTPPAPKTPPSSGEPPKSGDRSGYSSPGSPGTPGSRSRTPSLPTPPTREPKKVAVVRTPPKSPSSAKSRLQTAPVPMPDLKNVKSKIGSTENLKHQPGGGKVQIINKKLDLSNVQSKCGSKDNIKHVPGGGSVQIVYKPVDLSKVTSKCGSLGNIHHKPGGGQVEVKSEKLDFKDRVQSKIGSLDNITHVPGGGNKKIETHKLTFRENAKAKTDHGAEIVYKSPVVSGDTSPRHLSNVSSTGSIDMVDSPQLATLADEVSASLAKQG

[4] = molecular target: the molecule itself; experiment: MicroED structure of fibril nanocrystals; self-association
Protocol: (§1) Nanocrystals of […] (SEQ ID NO: 12) synthetic peptide (purchased from Genscript) were prepared from 30 mg/ml stocks dissolved in water by the addition of 45 mM arachidonic acid to concentrated peptide. Subsequently crystals were grown in batch at 37° C. by the addition of 10 μl of precipitant (32% PEG10K in 100 mM phosphate citrate, pH 4.2) to 5 μl of protein. After 18 hours nanocrystals were resuspended by pipetting, spun down in an epitube and the resulting crystalline pellet was washed three times with water. Nanocrystals of VQIINK (SEQ ID NO: 11) peptide (purchased from Genscript) were grown by vapor diffusion from peptide at 15 mg/ml as a 1:2 drop ratio (protein:reservoir) from 0.29 M LiNO3, 24% (w/v) PEG 3350 at 18° C. and similarly harvested for data collection.
(§2) MicroED data were collected by spotting 2-3 μl of crystals onto TEM grids with carbon film support and plunge frozen in liquid ethane using a Vitrobot Mark IV (FEI). Diffraction images were collected on an FEI Tecnai F20 TEM at 200 kV as a continuous rotation tilt series at a rate of 0.2° per second with 2 second exposures per image. Diffraction data from several crystals were indexed, merged and scaled with XDS and XSCALE.²⁷ Molecular replacement was performed with Phaser²⁸ using a polyalanine search model composed of an ideal β-strand. The structure of VQIINK (SEQ ID NO: 11) was solved using a truncated version of […] […]

[5] = molecular target: the molecule itself; experiment: MicroED structure of nanocrystals; self-association
Protocol: as §1, §2

Human Tau K18 2×VY (I278V/N279Y) (from UniProt P10636 561-689)
ThT fluorescence, time to half maximum of fibril formation (50 µM, heparin, shaking, 37° C.) [1]: 220 min

Human Tau K18 2×IN (V308I/Y309N) (from UniProt P10636 561-689)
ThT fluorescence, time to half maximum of fibril formation (50 µM, heparin, shaking, 37° C.) [2]: 70 min

B1: MINK inhibitor peptide (peptide)
peptide: DVQMINKKRK
IC50 of inhibition of seeding by pre-formed Tau40 fibers in biosensor cells [3]: 22 µM

B2: KVQIINKKLD synthetic peptide (ten residue Tau segment) (peptide)
peptide: KVQIINKKLD
notes: The peptide corresponds to Tau40 residues 274-283; also called ten residue VQIINK segment
binding result [4]: binds

B3: WINK inhibitor peptide (peptide)
peptide: DVQWINKKRK
IC50 of inhibition of seeding by pre-formed Tau40 fibers in biosensor cells [3]: 25 µM

B4: VQIINK peptide (six residue Tau segment) (peptide)
peptide: VQIINK
binding result [5]: binds

B5: W-MINK Phase 2 inhibitor peptide (peptide)
peptide: DVWMINKKRK
IC50 of inhibition of seeding by pre-formed Tau40 fibers in biosensor cells [3]: 9 µM
